Source: patent US20240261333A1, “NOVEL TARGETS FOR ENHANCING ANTI-TUMOR IMMUNITY” (THE BROAD INSTITUTE, INC., priority 2021, published 2024)

What was measured:
[1] = system: N-glycan synthesis; conditions: cited from earlier work
[2] = system: ESO T cells co-cultured with A375 cells; test: IFNγ ELISA in culture media of the T cell cytotoxicity assay; format: cell-based, human; conditions: B3GNT2-overexpressing A375 pretreated with inhibitor, E:T ratio of 3; kifunensine having a stronger effect
Procedure: Expanded T cells were thawed and maintained in culture media for 8-10 h before incubation with cancer cells. Cancer cells were seeded in 96-well plates and allowed to attach for 3-4 h before T cells were added at the appropriate effector to target cell (E:T) ratio. Paired controls with no T cells added were included for each condition. After 18 h, cancer cells were washed twice with PBS to remove T cells, passaged, and cultured for 2 days. Primary patient-derived cell models were not passaged after T cell co-culture. Viability was measured using CellTiter-Glo (Promega G7571). For each E:T ratio, percent survival was calculated as viability of the cells incubated with T cells divided by viability of the paired control that was not incubated with T cells. […]
To challenge cells with cytokines, cells were incubated with Interferon-γ (IFNγ; Cell Signaling Technology 80385S), FasL (AdipoGen AG-40B-0130-3010), TRAIL (R&D Systems 375-TL-010), or TNF-α (AdipoGen AG-40B-0019-3010) for 24 h. […] Cell viability was measured using CellTiter-Glo (Promega G7571) and protein was harvested for Western blots. […] IFNγ in the cell culture media of the T cell cytotoxic assay was quantified using an ELISA kit (Thermo Fisher Scientific KHC4021). […]

[3] = system: A375 cells overexpressing B3GNT2; test: Intra- and extra-cellular poly-LacNAc by tomato lectin staining, flow cytometry; format: cell-based, human; conditions: A375 overexpressing B3GNT2, pretreated with different concentrations of inhibitor
Procedure: (§1) For glycosylation inhibition, cells were treated with 20 μg/mL Kifunensine (Cayman Chemical 10009437) or 2 mM Benzyl 2-acetamido-2-deoxy-alpha-D-galactopyranoside (BAG; Millipore Sigma B4894-100MG) for 48 h to inhibit N- and O-glycosylation respectively unless otherwise indicated. For MCL1 inhibition, cells were treated with 1-10 μM of S63845 (Selleck Chemicals S8383) or AZD5991 (Selleck Chemicals S8643) for 4 h before incubation with T cells. Both glycosylation and MCL1 inhibitors were maintained at indicated concentrations during co-culture with T cells.
Per condition, 5×10^5 cells were pelleted at 200×g for 5 min and washed once with PBS. Cell were fixed in 4% Formaldehyde in PBS at 4° C. for 10 mins. […] For each sample, 10,000 cells were analyzed on a CytoFLEX Flow Cytometer (Beckman Coulter) and quantified with FlowJo (FlowJo). For each experiment, median fluorescence values for 3 biological replicates were compared to determine statistical significance.

[4] = system: A375 cells overexpressing B3GNT2; test: Binding of recombinant T cell proteins to A375 cells, flow cytometry; format: cell-based, human; conditions: B3GNT2-overexpressing A375 treated with inhibitor; CD2, 4-1BB, TREML2, NKG2D
Procedure: as §1
Per condition, 5×10^5 cells were pelleted at 200×g for 5 min and washed once with PBS. Cell were fixed in 4% Formaldehyde in PBS at 4° C. for 10 mins. Cells were washed twice with PBS and resuspended in PBS with 25 μg/mL recombinant Fc chimera proteins [PVRIG (R&D Systems 9365-PV-050), CD226 (R&D Systems 666-DN-050), NKG2D (R&D 1299-NK-050), TREML2 (R&D Systems 3259-TL-050), CD2 (R&D Systems 1856-CD-050), CD96 (R&D Systems 9360-CD-050), TIGIT (BPS Bioscience 71186), CD27 (BPS Bioscience 71176), or 4-1BB (TNFRSF9; Sino Bio 10041-H03H)], 0.1 μg/mL HLA-A2:NY-ESO-1 Fab (Stewart-Jones et al., 2009), 5 μg/mL Fas antibody (Millipore Sigma 05-201), 25 μg/mL TNFRSF10B antibody (Novus Biologicals NB100-56618, 1:200), or Dylight 649 labeled Tomato Lectin (Vector Laboratories DL-1178, 1:100). Cells were incubated at 4° C. for 1 h. Cells were washed twice with PBS and resuspended in PBS with the appropriate secondary antibody [IgG Fc PE (Thermo Fisher Scientific 12-4998-82, 1:50), His Tag Alexa Fluor 647 (Thermo Fisher Scientific MA121315A647), mouse Alexa Fluor 568 (Thermo Fisher Scientific A-11031), or rabbit Alexa Fluor 647 (Thermo Fisher Scientific A-21244)]. Cells stained with Tomato Lectin were not incubated with additional secondary antibodies. […] For each sample, 10,000 cells were analyzed on a CytoFLEX Flow Cytometer (Beckman Coulter) and quantified with FlowJo (FlowJo). For each experiment, median fluorescence values for 3 biological replicates were compared to determine statistical significance.

[5] = system: A375 (NY-ESO-1+, HLA-A2+) melanoma cells; test: T cell cytotoxicity assay (CellTiter-Glo), A375 against ESO T cells; format: cell-based, human; conditions: B3GNT2-overexpressing A375 pretreated with inhibitor, E:T ratio of 3, kifunensine having a stronger effect
Procedure: Expanded T cells were thawed and maintained in culture media for 8-10 h before incubation with cancer cells. Cancer cells were seeded in 96-well plates and allowed to attach for 3-4 h before T cells were added at the appropriate effector to target cell (E:T) ratio. Paired controls with no T cells added were included for each condition. After 18 h, cancer cells were washed twice with PBS to remove T cells, passaged, and cultured for 2 days. Primary patient-derived cell models were not passaged after T cell co-culture. Viability was measured using CellTiter-Glo (Promega G7571). For each E:T ratio, percent survival was calculated as viability of the cells incubated with T cells divided by viability of the paired control that was not incubated with T cells. For example, CD274-overexpressing melanoma cells that were co-cultured with ESO T cells were compared to CD274-overexpressing melanoma cells that were cultured without T cells in parallel. As an alternative cytotoxicity assay, A375 cells stably expressing Gaussia luciferase were co-cultured with ESO T cells. At each time point, 10% of cell culture media was used for the Gaussia luciferase assay (Targeting Systems GAR-2B) to directly measure cytotoxicity.
as §1

[6] = biological target: T1, B3GNT2 (Homo sapiens, UniProt Q9NY97); test: Co-IP of FLAG-tagged B3GNT2 followed by mass spectrometry; format: cell-based; design: C-term IgG / C-term flag: unit not given here
T1 construct: The respective ORFs of candidate genes [CD274 (NM_014143), MCL1 (NM_021960), JUNB (NM_002229), and B3GNT2 (NM_006577)] were synthesized; expressed in transfected cells; host or cells: A375 melanoma cells (lentiviral ORF overexpression)
T1 sequence (Q9NY97 1-397): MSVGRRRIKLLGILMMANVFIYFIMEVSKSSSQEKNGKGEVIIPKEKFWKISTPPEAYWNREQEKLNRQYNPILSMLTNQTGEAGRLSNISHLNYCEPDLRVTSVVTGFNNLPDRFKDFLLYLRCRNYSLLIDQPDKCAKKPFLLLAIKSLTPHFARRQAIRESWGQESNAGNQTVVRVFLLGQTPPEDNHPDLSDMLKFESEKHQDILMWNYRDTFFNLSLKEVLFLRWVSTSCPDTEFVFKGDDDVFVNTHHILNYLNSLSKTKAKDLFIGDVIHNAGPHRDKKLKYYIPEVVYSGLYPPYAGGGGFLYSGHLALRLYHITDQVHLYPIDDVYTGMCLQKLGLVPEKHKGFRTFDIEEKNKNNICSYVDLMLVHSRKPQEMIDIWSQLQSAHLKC
Procedure: Cells were plated in 10-cm cell culture dishes and grown to 60-80% confluency. For each condition, two biological replicates were harvested for co-IP. Cells were washed with PBS and 4 mL of lysis buffer (20 mM HEPES, 1% Triton X-100, 150 mM NaCl, 1 mM EDTA, and 10% glycerol) containing protease inhibitor cocktail was added. Cells were scraped and lysate was incubated at 4° C. under rotary agitation for 1 h. Lysate was centrifuged at 14,000×g for 10 min at 4° C. Supernatant was transferred to a new tube and an aliquot was taken as the input. […] For Western blots, 10 μg/mL Chicken Anti-FLAG (Aves labs ET-DY100) and IgY control (R&D Systems AB-101-C) antibodies were biotinylated (Thermo Fisher Scientific 90407) and added to the respective conditions. Lysates with antibodies were incubated at 4° C. under rotary agitation overnight. For each mL of lysate, 50 μL of Pierce Protein A/G Magnetic Beads (Mass spectrometry; Thermo Fisher Scientific 88803) or Pierce Streptavidin Magnetic Beads (Western blot; Thermo Fisher Scientific 88817) was washed twice with lysis buffer. Lysates with antibodies were added to the beads and incubated at 4° C. under rotary agitation for 4 h. Beads were washed with lysis buffer 3 times and resuspended in lysis buffer for storage. […] This solution was subjected to solid phase extraction to concentrate the peptides and remove unwanted reagents followed by injection onto a Shimadzu HPLC with fraction collector. Eight fractions were collected and after concentration were injected on a Waters NanoAcquity HPLC equipped with a self-packed Aeris 3 μm C18 analytical column 0.075 mm by 20 cm, (Phenomenex). Peptides were eluted using standard reverse-phase gradients. The effluent from the column was analyzed using a Thermo Orbitrap Elite mass spectrometer (nanospray configuration) operated in a data dependent manner for 54 minutes. […] Scaffold Q+S (Proteome Software) was used to provide consensus reports for the identified proteins.

[7] = Co-IP followed by mass spectrometry of B3GNT2, C-term tag, FLAG pull-down
[8] = Co-IP followed by mass spectrometry of B3GNT2, C-term tag, IgG pull-down
[9] = Co-IP followed by mass spectrometry of B3GNT2, N-term tag, FLAG pull-down
[10] = Co-IP followed by mass spectrometry of B3GNT2, N-term tag, IgG pull-down
[11] = Co-IP with FLAG antibody, C-terminally FLAG-tagged B3GNT2, mass spectrometry count, unit not given
[12] = Co-IP with FLAG antibody, N-terminally FLAG-tagged B3GNT2, mass spectrometry count, unit not given
[13] = Co-IP with IgG control antibody, C-terminally FLAG-tagged B3GNT2, mass spectrometry count, unit not given
[14] = Co-IP with IgG control antibody, N-terminally FLAG-tagged B3GNT2, mass spectrometry count, unit not given

Compound	C-term flag [6, 11]	N-term FLAG [6, 12]	C-term IgG [6, 13]	N-term IgG [6, 14]	other results
tunicamycin					Inhibition of N-glycan synthesis [1]: potent inhibitor of N-glycan synthesis
CC(=O)N[C@H]1[C@@H](OCc2ccccc2)O[C@H](CO)[C@H](O)[C@@H]1O [BAG, benzyl-2-acetamido-2-deoxy-α-D-galactopyranoside]					T cell IFNγ secretion [2]: increased T cell IFNγ secretion; poly-LacNAc measured by tomato lectin staining [3]: reduced poly-LacNAc added by B3GNT2 in a dosage-dependent manner; Binding of recombinant T cell proteins to A375 cells [4]: rescued the reduction in T cell protein binding; Cell survival against T cell cytotoxicity [5]: reduced A375 survival
DHX9					C-term flag [6, 7]: 5; C-term IgG [6, 8]: 0; N-term FLAG [6, 9]: 0; N-term IgG [6, 10]: 0
STRAP	3	4	0	0	
GAPDH	16	18	6	11	
SEC16A	0	2	0	0	
RPS24					C-term flag [6, 7]: 8; C-term IgG [6, 8]: 2; N-term FLAG [6, 9]: 0; N-term IgG [6, 10]: 4
HNRNPA2B1					C-term flag [6, 7]: 8; C-term IgG [6, 8]: 9; N-term FLAG [6, 9]: 7; N-term IgG [6, 10]: 4
HBA1	4	3	0	3	
TOR1AIP2	2	0	0	0	
UGGT1	5	2	0	0	
DNAJA1	10	6	0	0	
RNASE1	2	0	0	0	
PXN	0	2	0	0	
HDGFL2	2	0	0	0	
ABCF1	2	0	0	0	
ECPAS	0	3	0	0	
SYNM					C-term flag [6, 7]: 5; C-term IgG [6, 8]: 2; N-term FLAG [6, 9]: 5; N-term IgG [6, 10]: 5
P4HB	23	3	0	0	
PRBP1					C-term flag [6, 7]: 9; C-term IgG [6, 8]: 6; N-term FLAG [6, 9]: 6; N-term IgG [6, 10]: 7
PSMD4	0	2	0	0	
YBX3	7	0	0	0	
